{
  "source": "patent US9952227B2",
  "about": "“Method for detecting bilirubin” (Research Foundation of the City University of New York, priority 2015, dated 2018)",
  "molecules": {"B1": {"name": "Chlopsid FP I: bilirubin-inducible fluorescent fatty acid-binding protein from Kaupichthys hyoproroides, SEQ ID NO: 1 (protein)", "chain": "MFEDFLGTWKCIDSQNFGAYLAAIGAPPVLSERADATRPTVHFNRDGDKLSLKVEHGPPPLKDVLLSFKLGEEFDEHPTDGRKCKTLVTFEGDKLLYLQKWDGKETVVVREIRDGNVVATLSHEGVVALRVYKKVAGPTALE", "modifications": "Kaupichthys hyoproroides"}, "B2": {"name": "Chlopsid FP II: bilirubin-inducible fluorescent fatty acid-binding protein from Kaupichthys n. sp., SEQ ID NO: 2 (protein)", "chain": "MFEDFLGTWECIDSQNFGAYLAAVGAPPVLSDRADATRPTVYFNRDGDKLSLKVEHGPPPLKDVILSFKLGEEFDEHPTDGRKCKTLVTFEGDKLLYLQKWDGKETVVVREIRDGNVVATLSHEGVVALRVYKKVAGPTA", "modifications": "Kaupichthys hyoproroides"}, "B3": {"name": "UnaG: bilirubin inducible fluorescent protein from Anguilla japonica, novel member of the FABP family (protein, UniProt P0DM59 1-139, looked up)", "Bilirubin-inducible …": "MVEKFVGTWKIADSHNFGEYLKAIGAPKELSDGGDATTPTLYISQKDGDKMTVKIENGPPTFLDTQVKFKLGEEFDEFPSDRRKGVKSVVNLVGEKLVYVQKWDGKETTYVREIKDGKLVVTLTMGDVVAVRSYRRATE"}},
  "key": {"[1]": {"test": "Fluorescence excitation and emission spectra", "type": "physicochemical", "method": "In Chlopsid FP I and Chlopsid FP II this amino acid is a histidine. This difference in amino acid sequence can potentially explain the fluorescence shift, due to an increase in the π conjugation of the system.\nFluorescence Spectroscopy: Fluorescence excitation and emission spectra were recorded using a F-7000 Hitachi Fluorescence Spectrometer."}, "[2]": {"test": "Fluorescence quantum yield", "type": "physicochemical", "method": "The fluorescence quantum yield of Chlopsid FP I was determined to be 0.47. […] These values are close to the reported quantum yield for UnaG of 0.51 (Table 1). Two prolines in the Gly-Pro-Pro sequence motif were mutated to glycine."}, "HEK293 cells": {"system": "HEK293 cells", "test": "Expression of Chlopsid FP I in HEK293 cells, single and two-photon imaging", "type": "cell-based", "method": "Expression in Mammalian Cells: Chlopsid FP I was expressed in mammalian cells (HEK293) without the addition of bilirubin. […] The two-photon excitation was fairly flat from 700-1000 nm with a peak at 860 nm and an unusual dip at 840 nm.\nExpression of Chlopsid FP I in HEK293 Cells: A pCS2+vector was used for cloning of Chlopsid FP I for expression in HEK293 cells (ATCC, USA) using Kpn-Sphl cloning sites. Plasmids were prepared by Genscript USA, Inc. The expression was driven in HEK293 cells (ATCC, USA) by CMV promotor. The HEK293 cell line was maintained in Dulbecco's Modified Eagle Medium (High Glucose) (DMEM) (Invitrogen, USA), supplemented with 10% fetal bovine serum (FBS) (Sigma-Aldrich, USA), in a 37° C. incubator with 5% CO2. Transient transfection was performed using 2 μg of DNA per 35 mm dish and 5 μg of Lipofectamine 2000 (Invitrogen, N.Y.). Cells were imaged on a custom-made 2-photon microscope using a Chameleon Ti-Sapphire laser (Coherent Inc, CA) and water immersion 20×/0.95 N.A. objective (Olympus, Japan). Images were taken using 850 nm laser light with power of 15 mW at the objective."}, "mammalian cells": {"system": "mammalian cells", "test": "Fluorescence of expressed protein in mammalian cells upon addition of exogenous bilirubin", "type": "cell-based", "description": "(§1) Hayashi and Toda reported that Anguilla japonica (heavily farmed in Japanese aquaculture and a historical staple of Japanese cuisine) was weakly green fluorescent. They purified a fluorescent protein from A. japonica muscle tissue and isolated and sequenced several peptide fragments. […] Then in 2013, Kumagai et al., published a full characterization of the fluorescent protein from A. japonica. […] The Kaupichthys hyoproroides and Kaupichthys n. sp. data was re-examined and found a single transcript in each of the two species' transcriptomes that encoded an FABP including the Gly-Pro-Pro insertion. […] These proteins, termed Chlopsid FP I and Chlopsid FP II, are orthologs of UnaG (FIG. 1). FIG. 1 depicts sequence alignment of fluorescent FABPs from eels with a non-fluorscent FABP from Kaupichthys hyoproroides (Chlopsid NFP) and human brain FABP-7. Areas of homology are identified with solid lines boxes. The GPP sequence motif is identified with a dotted lined box."}, "E. coli": {"system": "E. coli", "test": "Fluorescence of expressed protein in E. coli upon addition of exogenous bilirubin", "type": "cell-based", "description": "as §1\nProtein Expression and Purification. Candidate ORFs were selected from eel transcriptome data containing an unusual sequence motif (Gly-Pro-Pro) on a loop between two beta sheets in the FABP sequence. […] Protein concentration was determined by A280 measurements, using calculated extinction coefficients of 15,300 M^−1 cm^−1 for Chlopsid FP I, and 16,600 M^−1 cm^−1 for Chlopsid FP II. […]"}, "[3]": {"conditions": "reference fluorescent protein; cited from earlier work"}, "[4]": {"conditions": "reported value for reference fluorescent protein; cited from earlier work"}},
  "note": "Values joined by “and” are separate entries in the source; they are usually repeats but may differ in a detail not shown here. Identical values can stand only once. Like-named read-outs stand apart in the source and are kept apart here.",
  "data": [
    {"molecule": "B1", "values": [
      {"measurement": "Ex/Em maxima: emission maximum", "setting": "[1]", "value": "527 nm and 524 nm"},
      {"measurement": "Ex/Em maxima: excitation maximum", "setting": "[1]", "value": "498 nm and 490 nm"},
      {"measurement": "Fluorescence quantum yield", "setting": "[2]", "value": 0.47},
      {"measurement": "Two-photon excitation dip", "setting": "HEK293 cells; HEK293", "value": 840, "unit": "nm"},
      {"measurement": "Two-photon excitation peak", "setting": "HEK293 cells; HEK293, excitation fairly flat from 700-1000 nm", "value": 860, "unit": "nm"},
      {"measurement": "Fluorescence of expressing cells", "setting": "HEK293 cells; HEK293, without the addition of bilirubin, single and two-photon imaging", "value": "bright fluorescence"},
      {"measurement": "Fluorescence upon addition of exogenous bilirubin", "setting": "mammalian cells", "value": "strong green fluorescence"},
      {"measurement": "Fluorescence upon addition of exogenous bilirubin", "setting": "E. coli", "value": "strong green fluorescence"}
    ]},
    {"molecule": "B2", "values": [
      {"measurement": "Ex/Em maxima: emission maximum", "setting": "[1]", "value": "527 nm and 524 nm"},
      {"measurement": "Ex/Em maxima: excitation maximum", "setting": "[1]", "value": "498 nm and 490 nm"},
      {"measurement": "Fluorescence quantum yield", "setting": "[2]", "value": 0.37},
      {"measurement": "Fluorescence upon addition of exogenous bilirubin", "setting": "mammalian cells", "value": "strong green fluorescence"},
      {"measurement": "Fluorescence upon addition of exogenous bilirubin", "setting": "E. coli", "value": "strong green fluorescence"}
    ]},
    {"molecule": "B3", "values": [
      {"measurement": "Ex/Em maxima: emission maximum", "setting": "[3]", "value": "523 nm and 530 nm"},
      {"measurement": "Ex/Em maxima: excitation maximum", "setting": "[3]", "value": "489 nm and 498 nm"},
      {"measurement": "Fluorescence quantum yield", "setting": "[4]", "value": 0.51}
    ]}
  ]
}
